Measured values taken from US20240092916A1 (Astellas, published 2024).

Experiments:
Experiment in all cases: ELISA, antigen immobilized at 1 µg/mL, detection with anti-human kappa-HRP
[1] = biological target: T1, ActRIIA-His (LifeSpan Biosciences, LS-G39063) (Homo sapiens (Human), UniProt P27037 20-135)
T1 construct: Bought reagent
Procedure: (§1) The binding activities of the humanized 75E9STF8-1 obtained in Example 4 to ActRIIA, ActRIIB, and Fn14 were evaluated. ActRIIA-His (LifeSpan Biosciences, LS-G39063), ActRIIB-His (LifeSpan Biosciences, LS-G38834), and the human Fc fusion proteins including the extracellular domain of human Fn14 prepared in Example 3 were each diluted to 1 μg/mL with phosphate-buffered physiological saline (PBS), each added to a Maxisorp 384-well transparent plate (Nunc, 464718) at 15 μL/well, and incubated at 4° C. overnight for immobilization. On the next day, the solid phase liquid was removed and washing was performed with a 0.05% Tween-20-containing Tris-buffered physiological saline (TBS-T). Thereafter, PBS including 20% Blocking One (Nacalai tesque, Inc., 03953-95) was added thereto at 50 μL/well, and the mixture was left to stand at room temperature for 1 hour and then washed with TBS-T. Dilution series of humanized 75E9STF8-1 were prepared by dilution in 12 steps at a 4-fold common ratio from the maximum concentration of 30 μg/mL, and added at 20 μL/well. TBS-T including 5% Blocking One was used as a diluent. After incubation for 1 hour at room temperature, washing was performed with TBS-T. As a detection antibody, Goat Anti-Human Kappa, Mouse ads-HRP (SouthernBiotech, 2061-05) which had been 4,000-fold diluted with a diluent (TBS-T including 5% Blocking One) was added at 20 μL/well. After incubating at room temperature for 1.5 hours, the cells were washed with TBS-T, TMB+Substrate-Chromogen (DAKO, S159985) was added thereto, the mixture was left to stand, 1 M sulfuric acid was added thereto to stop the reaction, and the absorbance at 450 nm was measured with Infinite (registered trademark) 200 Pro (TECAN).

[2] = biological target: T2, ActRIIB-His (LifeSpan Biosciences, LS-G38834) (Homo sapiens (Human), UniProt Q13705 19-137)
T2 construct: Bought reagent
T2 sequence: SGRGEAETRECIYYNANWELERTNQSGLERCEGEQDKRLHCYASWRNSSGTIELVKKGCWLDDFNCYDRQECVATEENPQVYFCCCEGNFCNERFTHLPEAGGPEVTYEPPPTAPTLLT
Procedure: as §1

[3] = biological target: T3, human Fc fusion protein including the extracellular domain of human Fn14 (human, UniProt Q9NP84 28-80)
T3 construct: extracellular domain; not shown: human Fc
T3 sequence (looked up): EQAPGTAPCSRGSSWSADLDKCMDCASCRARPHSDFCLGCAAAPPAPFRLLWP
Procedure: as §1

T1 sequence (P27037 20-135 limits assumed, form in doubt, one chain of several): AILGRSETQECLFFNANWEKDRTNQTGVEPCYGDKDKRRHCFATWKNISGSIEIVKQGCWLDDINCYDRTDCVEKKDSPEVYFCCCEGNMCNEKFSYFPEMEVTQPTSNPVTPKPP

EC50 [1]: 5.03 ng/mL | EC50 [2]: 9.24 ng/mL | EC50 [3]: 23.3 ng/mL
B1: humanized 75E9STF8-1 (bispecific antibody, human IgG1, kappa, L234A L235A)
heavy: EVQLVESGGGLVQPGGSLRLSCAASRSIFAYGTMAWYRQAPGKGRELVATISGGGTTSYSDSVKGRFTISRDNGKSTVYLQMNSLRAEDTAVYYCNKRSIGTNDFWGQGTLVTVSSGGGGSGGGGSGGGGSGGGGSGGGGSEVQLVESGGGLVQPGGSLRLSCAASGFTLTTNALIWGRQAPGAAPGKGPEWVAGIRADGRPYYGDSMKGRVTISRDIAKNTAYLQMNSLRPEDTAVYFCATRLDDSGTYDRGRGTTVTVSSGGGGSGGGGSEVQLVESGGGLVKPGGSLRLSCAASGITFSTYGMNWVRQAPGKGLEWVSSISSRSIHISYADSVKGRFTISRDNAKNSLYLQMSSLRADDTAVYYCARDRGAAAFDYWGRGTLVAVSSASTKGPSVFPLAPSSKSTSGGTAALGCLVKDYFPEPVTVSWNSGALTSGVHTFPAVLQSSGLYSLSSVVTVPSSSLGTQTYICNVNHKPSNTKVDKKVEPKSCDKTHTCPPCPAPEAAGGPSVFLFPPKPKDTLYITREPEVTCVVVDVSHEDPEVKFNWYVDGVEVHNAKTKPREEQYNSTYRVVSVLTVLHQDWLNGKEYKCKVSNKALPAPIEKTISKAKGQPREPQVYTLPPSRDELTKNQVSLTCLVKGFYPSDIAVEWESNGQPENNYKTTPPVLDSDGSFFLYSKLTVDKSRWQQGNVFSCSVMHEALHNHYTQKSLSLSPGK
light: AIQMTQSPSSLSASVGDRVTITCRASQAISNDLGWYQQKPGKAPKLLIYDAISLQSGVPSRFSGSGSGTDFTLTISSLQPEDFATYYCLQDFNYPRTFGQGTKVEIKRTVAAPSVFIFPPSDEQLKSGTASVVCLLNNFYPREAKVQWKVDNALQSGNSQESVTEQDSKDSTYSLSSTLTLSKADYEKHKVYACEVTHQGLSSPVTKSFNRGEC
notes: Expressed in CHO-K1SV cells
